The labels stand for the following.
B1: Azoarcus group I ribozyme (parent)
chain: GUGCCUUGCGCCGGGAAACCACGCAAGGGAUGGUGUCAAAUUCGGCGAAACCUAAGCGCCCGCCCGGGCGUAUGGCAACGCCGAGCCAAGCUUCGGCGCCUGCGCCGAUGAAGGUGUAGAGACUAGACGGCACCCACCUAAGGCAAACGCUAUGGUGAAGGCAUAGUCCAGGGAGUGGCGAAAGUCACACAAACCGG

83 variants from the RNAGym collection of RNA variant scans (doi:10.1093/molbev/msab373) can be followed below.

Variants of B1 are the subject of the data set. The data set can be described thus: reverse-splicing fitness (ratio to wild type); higher = more active; in vitro selection; Mg2+ level not given. The gist of the method: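 An in vitro group I ribozyme library with randomized positions was T7-transcribed and gel-purified. In triplicate, 10 pmol RNA in EPPS pH 7.5 was reacted with 50 pmoles of a 30-nt RNA substrate for 1 h at 37 °C across several added MgCl2 levels (1–48 mM), then stopped with EDTA. Products were reverse transcribed from a substrate-complementary primer, PCR-amplified and sequenced (HiSeq 4000). Fitness is a variant's read proportion after selection over that before, normalised to wild type.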
Consider C82A A111C A120C A145C C150A C169U U176A, for which the reverse-splicing fitness turned out to be 0.0165. In the case of A111U A120G C150U U176G it was 0.00616. Then C82U A111C A120G C169U, with 0.0077; and C82G A120C A145U C150G C169G U176G, with 0.00427; and C82A A120C A145C C169U U176G, with 0.00354. Turning to C82A A120C A145C C169U U176A, the reverse-splicing fitness worked out at 0.0135.

In the case of C82G A111U A120G A145U C169U, the reverse-splicing fitness was 0.01. For the variant A111U A120G A145U C150A C169A U176C, the reverse-splicing fitness amounted to 0.0102. For the variant C82U A120C A145U C150G C169G U176G, the reverse-splicing fitness came to 0.00365. In the case of C82A A111G A120C A145G C169U U176A it was 0.0149; in that of C82A A111U A120C A145C C150A C169G, 0.00947; in that of C82G A111U A120U A145G C150U C169A U176G, 0.00276. In the case of A145G C150G U176G it was 0.0658; in that of C82A A111U A120U A145G C169G, 0.00467. A111G C150U C169A U176G: the reverse-splicing fitness is 0.00554. Turning to A111U A120C A145C C150A C169A U176A, the reverse-splicing fitness came out at 0.0101.

As to C82A A111C A120U A145U C150U, the reverse-splicing fitness stood at 0.0169.

In the case of A111G A120U C150G C169U U176C, the reverse-splicing fitness worked out at 0.00437. Then C82A A120G A145G C150G C169A, with 0.01; and C82A A120U A145G C150A C169A, with 0.00563; and C82U A111U A120C A145C C150U C169U, with 0.00899. Then A111U A120U A145G C169G U176A, with 0.00549; and C82U A111U A120C A145G C150U, with 0.0229. Then A120C C150A C169A U176A, with 0.0193; and A111G A120C A145U C150A C169G U176C, with 0.011. For A111C A120C A145G C150G U176C, the reverse-splicing fitness amounted to 0.0368. In the case of C82A A111G A120U C150U it was 0.0201.

Take C82A A111U A120G A145G C150U C169U U176G: the reverse-splicing fitness stood at 0.00618.

Take C82A A111U A120G A145G C150U C169U U176A: the reverse-splicing fitness amounted to 0.0181.

For the variant C82G A111G A145U C150G C169U U176C, the reverse-splicing fitness was 0.016. Then C82G A111G A120U A145G C150A C169A, with 0.00593; and C82G A120U A145C C150A C169U U176C, with 0.00224.

With A111C A145C C150A C169U U176G, the reverse-splicing fitness worked out at 0.00658. In the case of C82G A111U A120U A145U C150G U176G it was 0.00246; in that of C82U A111U A120U C150G C169G U176G, 0.00254. In the case of A111U A120U C150G C169A U176C it was 0.0037. As for C82U C169A U176G, the reverse-splicing fitness came to 0.00439. Then C82G C169U U176C, with 0.0165. In the case of C82A A120G A145U C169G it was 0.0204. In the case of C82A A111U A145G C150U C169U U176G it was 0.00683; in that of A111U A145U C150U U176G, 0.266; in that of C82U A111C A145G C150G U176C, 0.0166. For the variant A111G A120U A145C C150A C169G U176C, the reverse-splicing fitness was 0.00181. In the case of A111G A120G C169A U176G it was 0.00449; in that of C82G A111C A145C C150G C169G U176C, 0.0101; in that of C82A A120U A145C C150U U176C, 0.0147.

Consider C82U A111G A120C C150G C169U, for which the reverse-splicing fitness came out at 0.00828. In the case of C82U A111G A120C A145G C150A U176A it was 0.0119; in that of C82U A120U A145U C150G C169U U176A, 0.00257; in that of C82U A111C A120G A145G C150G C169A U176C, 0.011. In the case of A111U A120G A145C C150U C169A it was 0.0284. Then A111C A120C A145C C169U U176C, with 0.0413; and C82G A111G A120G A145G C169A, with 0.0141.

For the variant C82G A111U A120C A145U C150A C169U U176G, the reverse-splicing fitness came to 0.00715. Regarding C82A A111C A120U A145U C150G C169U U176A, the reverse-splicing fitness came to 0.0031. In the case of C82G A111G A120G A145U C150G it was 0.00774; in that of C82A A111U A120C A145G C150G C169A U176A, 0.0164. Then C82G A111G A120G U176A, with 0.0172; and C82G A111G A120U A145G C150A U176C, with 0.00919; and C82A A120C A145C C150U U176C, with 0.0227. In the case of C82A A120G C150U C169A U176A it was 0.0169; in that of C82G A111C A120G A145G C150G C169A U176G, 0.00843; in that of A111G A120G A145G C169U U176C, 0.0954. Take A111G A120U A145U C150A C169U U176G: the reverse-splicing fitness came to 0.00172.

A111C U176G: the reverse-splicing fitness stood at 0.202.

On to C82G A111U A120G A145G C150U, for which the reverse-splicing fitness came to 0.0139. Then A120G A145C C150A C169A U176C, with 0.0164; and C82A A120G A145C C150U C169A U176C, with 0.00527; and A111C A120C A145C C169U, with 0.17. Consider C82U A120G C150G C169A U176G, for which the reverse-splicing fitness is 0.00547. Then A111U C150A U176C, with 0.251; and C82G A111U A120C A145C C169U U176A, with 0.0148. In the case of A111C C169A U176A, the reverse-splicing fitness was found to be 0.0188. On to C82G A111C A145G C150G C169A U176G, for which the reverse-splicing fitness worked out at 0.00829. Then C82G A111C A120G A145C C150A, with 0.00698; and C82U A111U U176A, with 0.107; and A111C, with 0.872. With C82A A111G A120U A145C C150A C169U U176G, the reverse-splicing fitness was 0.00212. Then C82A A111C A145G C169A U176A, with 0.0211; and A111U A145U C150U C169U U176C, with 0.0268; and C82U A111C A145C C150G U176C, with 0.0151.

Consider A111U A120U C150U C169G U176A, for which the reverse-splicing fitness amounted to 0.00847.

On to A111G A145C C169U, for which the reverse-splicing fitness was determined as 0.188.
